{"source": "paper PMC3315326", "biological_target": "DNMT1 (UniProt P26358 1-1616)", "sequence (P26358 whole entry)": "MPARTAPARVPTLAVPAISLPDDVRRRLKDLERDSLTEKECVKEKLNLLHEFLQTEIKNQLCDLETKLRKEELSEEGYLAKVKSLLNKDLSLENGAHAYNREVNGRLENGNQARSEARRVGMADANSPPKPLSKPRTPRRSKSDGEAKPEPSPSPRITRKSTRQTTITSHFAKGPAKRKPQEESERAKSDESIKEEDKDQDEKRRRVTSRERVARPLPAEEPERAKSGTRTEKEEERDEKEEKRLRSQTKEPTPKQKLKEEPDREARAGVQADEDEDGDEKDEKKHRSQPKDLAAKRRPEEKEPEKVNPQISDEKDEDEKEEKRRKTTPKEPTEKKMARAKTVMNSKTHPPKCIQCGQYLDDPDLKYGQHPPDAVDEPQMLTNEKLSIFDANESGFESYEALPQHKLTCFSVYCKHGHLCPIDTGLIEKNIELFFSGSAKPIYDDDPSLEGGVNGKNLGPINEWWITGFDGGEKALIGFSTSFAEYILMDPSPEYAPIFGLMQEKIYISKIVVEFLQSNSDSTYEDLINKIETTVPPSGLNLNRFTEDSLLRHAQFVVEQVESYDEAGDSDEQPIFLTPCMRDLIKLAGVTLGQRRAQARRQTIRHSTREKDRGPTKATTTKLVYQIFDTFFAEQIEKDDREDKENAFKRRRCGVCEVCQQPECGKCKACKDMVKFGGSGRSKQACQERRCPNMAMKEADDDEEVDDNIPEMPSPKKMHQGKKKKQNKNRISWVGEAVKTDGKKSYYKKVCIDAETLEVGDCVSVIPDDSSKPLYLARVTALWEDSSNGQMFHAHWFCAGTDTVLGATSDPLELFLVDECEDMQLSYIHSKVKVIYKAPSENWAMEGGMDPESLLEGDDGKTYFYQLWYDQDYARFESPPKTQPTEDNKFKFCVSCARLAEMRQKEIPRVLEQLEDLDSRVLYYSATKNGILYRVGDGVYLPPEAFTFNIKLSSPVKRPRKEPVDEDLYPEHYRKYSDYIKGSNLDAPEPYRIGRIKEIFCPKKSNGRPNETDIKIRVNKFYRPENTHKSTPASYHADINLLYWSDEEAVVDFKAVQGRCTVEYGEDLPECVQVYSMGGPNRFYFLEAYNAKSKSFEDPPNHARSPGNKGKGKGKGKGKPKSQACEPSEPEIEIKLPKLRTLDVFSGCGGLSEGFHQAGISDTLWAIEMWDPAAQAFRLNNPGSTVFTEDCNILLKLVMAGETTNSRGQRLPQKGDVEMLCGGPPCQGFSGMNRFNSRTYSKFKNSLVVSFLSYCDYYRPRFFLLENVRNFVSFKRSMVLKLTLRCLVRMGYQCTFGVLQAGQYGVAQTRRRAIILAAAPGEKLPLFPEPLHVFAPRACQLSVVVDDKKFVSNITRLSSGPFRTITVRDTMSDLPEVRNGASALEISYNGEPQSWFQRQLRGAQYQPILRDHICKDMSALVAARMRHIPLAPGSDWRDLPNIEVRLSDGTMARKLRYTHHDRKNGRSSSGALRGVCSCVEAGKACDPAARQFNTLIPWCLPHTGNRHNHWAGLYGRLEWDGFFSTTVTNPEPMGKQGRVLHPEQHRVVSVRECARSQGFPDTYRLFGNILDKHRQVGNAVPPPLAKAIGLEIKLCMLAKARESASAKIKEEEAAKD", "test": "SPR"}
{"binder": "hemimethylated 30-bp oligo (D1subHMF/D1subUMF) (dsDNA, 5-methylcytosine at position 15 of strand 1) DNA 1: GAAGCTGGGACTTCCGGCAGGAGAGTGCAA DNA 2: TTGCACTCTCCTGCCGGAAGTCCCAGCTTC", "values": [{"measurement": "Kd", "result": 1070, "unit": "nM"}]}
